Where no end group is shown, it is not given here.
Tests used:
Format in all cases: biochemical
[1] = molecular target: T1, microbial transglutaminase (mTG) (Streptomyces mobaraensis, UniProt P81453); assay: Colorimetric assay: mTG incorporation of biotinylated peptides into immobilized spermine, apparent Km; details: spermine plate; for Kmapp: biotin tagged peptides at 160-0 μM, Lineweaver-Burk, nr = peptide not recognized by the enzyme; for reactivity of peptide with mTG (text on Table 3): biotinylated peptides
T1 construct: purchased Covalab, France opr 0054
T1 sequence (P81453 77-407): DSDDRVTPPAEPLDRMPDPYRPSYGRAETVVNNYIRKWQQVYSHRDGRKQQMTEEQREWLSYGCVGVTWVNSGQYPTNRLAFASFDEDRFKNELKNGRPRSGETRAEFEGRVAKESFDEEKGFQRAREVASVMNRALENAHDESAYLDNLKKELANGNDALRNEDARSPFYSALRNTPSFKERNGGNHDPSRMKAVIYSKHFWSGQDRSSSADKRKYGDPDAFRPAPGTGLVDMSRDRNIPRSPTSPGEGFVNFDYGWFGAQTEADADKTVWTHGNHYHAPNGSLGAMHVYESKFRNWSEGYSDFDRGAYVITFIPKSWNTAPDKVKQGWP
Excerpt: To produce the Covabtest-spm plate, the procedure previously described in Mily et al (2009) was used.
For the screening of the peptide listed in table 2 (Biotinylated peptides) the inventors used our colorimetric assay to measure transglutaminase 2 (TG2) cross linking activity (Mily et al, 2009) and commercialized under ref opr0033 in which mTG was used instead of TG2 and described in this experience. The principle of the method is based on the transamidation activity of mTG, using covalently coupled spermine to carboxy-substituted polystyrene plates and biotinylated peptides. The assay consists of the incorporation of the glutamine gamma-carboxamide group into the immobilized spermine. The amount of biotinylated peptide bound to the plate, as measured by the activity of streptavidin-peroxidase, is directly proportional to the TG activity. Absorbance was measured at 450 nm using the microplate reader.
In order to compare the affinity of mTG to the preferred substrate, the peptides were used at different concentrations ranging from 160, 80, 40, 20, 10, 5, 2.5 and 0 μM. Then the apparent Km were determined for each peptide and were calculated by Lineweaver-Burk method (1/Absorbance=f(1/[mTG (μM)]).
In this experiment, spermine was conjugated into the plate as described in B-II-4. Biotinylated peptides described in table 3 were incubated with mTG at different concentration (160, 80, 40, 20, 10, 5, 2.5 and 0 μM). […] Even if E seems to abolish the reactivity of the peptides this cannot be due to the negative charge only but also to the nature of the amino acides at the position X+1, X+2 and X+3. […] This is confirmed with LN-11Q8Q10 peptide.

[2] = molecular target: T1, microbial transglutaminase (mTG); assay: mTG-mediated incorporation of biotin-X-cadaverine into peptides coupled on Covabtest plate; details: 15 nmoles peptide coupled to plate, biot-cad 0.1 mg/ml, mTG 10 ng/well
Experimental: The coupling method was previously described by the Applicant (V. Thomas et al, 2004) and also in the corresponding data sheet of CovAbtest-Plate™ which is commercially available from Covalab (Ref #opr0004). Briefly, in separate tubes a solution mixture containing 150 μM of each peptide dissolved in 10 mM phosphate buffer pH5, 5 mM EDAC and 5 mM NHS was incubated for 30 min under gentle shaking. The resulting activated NHS-carboxyl C-terminal moiety of each peptide (15 nmoles) was used to be conjugated in each well of CovAbtest-Plate™ previously deprotonated during 15 min with 150 μl 0.6% sodium bicarbonate per well. The microtiter plate was then incubated during 2 hrs at room temperature and washed extensively with Tris Buffer Saline.
For this experiment we used the same procedures described by V Thomas et all (2004) and also in the Covalab's commercialized kit (opr0033). Briefly the Lyophilized transglutaminase was reconstituted in 40 mM tris buffer pH 8 and 50 μl of each mTG at 200 ng/ml and at 40 ng/ml were added in the wells containing 50 μl of biotin-X-cadaverine. The enzymatic mixture was incubated for 15 min at room temperature under gentle shaking. Then the plates were washed 3 times with TBS-Tween20 followed by the addition of 100 μl of diluted HRP labeled streptavidine ( 1/2000 in TBS Tween20, 0.5% BSA) in each well. After 30 min at room temperature and 3 washings in TBS-Tween20, 100 μL of TMB substrate were added and after 5 min the colour development was stopped using 100 μl of 0.5 M sulfuric acid. Absorbances at 450 nm were measured using a microplate reader (Multiskan, Labsystems, Helsinki, Finland).
To screen the peptide library (Covalab) and identify the putative new substrates of mTG we used Covabtest-peptide (described in B-I-1) in which the peptides were covalently coupled into the plates and the amine substrate Biotin-cadeverine (biot-cad) was free in solution. In this experiment 15 nmoles of each peptide (table 2) were covalently conjugated to microtiter plate and the incorporation of biot-cad (0.1 mg/ml) catalyzed by mTG (10 ng/well) was determined following the experiment described in B-II-1. Among all the peptides tested only few peptides were recognized by mTG as Gln (Q) donor to incorporate biot-cad as shown in the FIG. 1. The enzymatic activity was different between the peptide substrates. […] When Q is replaced by N (peptide HH12N11) no reactivity of the mTG was observed confirming the specificity of the enzyme to Gln donor. Moreover, if the reactivity of the 4 peptides (HH12Q11, DH6Q7, HG14Q11 and WG10Q7) is compared, it can be observed that the reactivity of the Gln depends on its position in the peptide sequence. In the most reactive peptides Q is located at the C-terminal. […]

[3] = molecular target: T1, microbial transglutaminase (mTG); assay: mTG incorporation of biot-cad into coated BSA-peptide conjugate, with free-peptide competition; details: 1 μg/ml coated, mTG 100 ng/ml, biotin-cad 0.1 mg/ml
Experimental: 2 mg of each peptide was dissolved in 1 ml of deionized water and 150 nmoles were mixed with 0.5 mg BSA solubilized in 50 mM bicarbonate buffer pH9.5. After shaking, glutaraldehyde was added at a final concentration of 0.25% (v/v). The mixtures were kept at room temperature during 16 hrs under gentle shaking. At the end of this incubation time, sodium borohydride was added at a final concentration of 10 mg/ml to stabilize the cross-linking between BSA and the peptides. After 2 hours each mixture of peptide-BSA was dialyzed separately in PBS to remove any free peptides.
High binding 96 wells-microtiter plates (Costar) were used to immobilize BSA-peptide and to human IgG-peptide conjugates prepared as described in M-4 and M-5. For these experiments, conjugates were prepared at 50 μg/ml in 50 mM sodium carbonate buffer pH 9 and 100 μl of each solution was dispensed in the number of wells needed for the experiment. After overnight incubation at 4° C., the plates were washed extensively with Tris Buffer Saline (TBS) and were ready to be used for TG activity.
The same procedure was used as described in B-II-1
In the literature its well known that many proteins are not substrate of transglutaminase even if many glutamine residues are present in their structures (Gorman J J, Folk J E. J Biol Chem. 1984 Jul. 25; 259(14):9007-10). […]

[4] = molecular target: T1, microbial transglutaminase (mTG); assay: mTG reaction on preferred substrates and Q-to-N mutated analogues; details: mutated analogue peptides
Excerpt: In order to confirm the specificity of mTG reaction on the highly reactive peptide HH12Q11 and its small derivatives DH6N5, the inventors synthesized the mutated analogue peptides in which the Gln donors (Q) were replaced by asparagine (N).

Row | Substance | Kmapp [1] | reactivity of peptide with mTG (text on Table 3) [1] | further results
1 | CHQSYV (also: biotin, place not given here) [bCV6Q3] | nr |  | 
2 | HDLMWPDVYSQH (also: biotin, place not given here) [bHH12Q11] | 3.08 µM |  | 
3 | FWIQE (also: biotin, place not given here) [bFE5Q4] | 5.00 µM |  | 
4 | HNKSQAL (also: biotin tag, position not given here) [bHL8Q6] | nr |  | 
5 | GGSPLAQSHGGS (Peptide GS12Q7) [reference compound] |  |  | reactivity as Gln donor for mTG incorporation of biot-cad [2]: low reactivity
6 | HDLMWPDVYSNH (also: biotin, place not given here) [bHH12N11] | nr |  | 
7 | DVYSQH (Peptide DH6Q5) |  | highly reactive with mTG | 
8 | LLTLPSVSEQN (also: biotin, place not given here) [bLN11Q10] | nr | inhibit completely the reactivity | 
9 | free BSA: non modified bovine serum albumin, control [reference compound] |  |  | incorporation of biot-cad by mTG into coated protein [3]: no reactivity
10 | YEVQK [BEST5] | 0.126 µM | excellent substrates | 
11 | DVYSQH (also: biotin, place not given here) [bDH6Q5] | 33.10 µM |  | 
12 | KEEFQPL (also: biotin, place not given here) [bKL7Q5] | nr |  | 
13 | VWRSQYF (also: biotin, place not given here) [bVF7Q5] | nr |  | 
14 | YEAQR [BEST3] | 0.08 µM | excellent substrates | 
15 | SPLKHQEY (also: biotin, place not given here) [bSY8Q6] | >50.00 µM |  | 
16 | HSQALP [bHP6Q3(A)] | nr |  | 
17 | PLVQSH (also: biotin, place not given here) [bPH6Q4] | 14.77 µM |  | 
18 | HDLMWPDVYSNH [HH12N11] |  |  | reactivity as Gln donor for mTG incorporation of biot-cad [2]: no reactivity; mTG reactivity after replacement of Q by N [4]: abolish totally the enzyme reactivity
19 | DVYSNH (Peptide DH6N5) |  |  | mTG reactivity after replacement of Q by N [4]: abolish totally the enzyme reactivity
20 | WPLMMQD (also: biotin) [bWD7Q7] | nr |  | 
21 | YEAQK [BEST2] | 0.114 µM | excellent substrates | 
22 | YEIQR [BEST1] | 0.086 µM | excellent substrates | 
23 | DVYSNH (also: biotin, place not given here) [bDH6N5] | nr |  | 
24 | DVYSQE (also: biotin, place not given here) [bDE6Q5] | nr | reactivity seems to be lost | 
25 | WPAQR [BEST4] | 0.225 µM | excellent substrates | 
26 | WPDVYSQH (Peptide WH8Q7) |  | highly reactive with mTG | 
27 | FWIQE (Peptide FE5Q4) |  | high reactivity with mTG | reactivity as Gln donor for mTG incorporation of biot-cad [2]: good substrate for mTG
28 | PSVQES (not fully specified; also: biotin tag, site not given here) [bPS6Q3] | nr |  | 
29 | LLTLPSVQEQN (also: biotin, place not given here) [bLN11Q8-10] | 172.00 µM |  | 
30 | WPDVYSQH (also: biotin) [bWH8Q7] | 11.40 µM |  | 

Reference: patent publication US11376333B2, “mTG substrates for covalent conjugation of compounds” (COVALAB, priority 2013, dated 2022)
